Test results published in patent US20220112249A1 (published 2022).

Molecular target: V1.1
Assay: SPR

B1: CFH (fH67) (other)
chain: TLKPCDYPDIKHGGLYHENMRRPYFPVAVGKYYSYYCDEHFETPSGSYWDHIHCTQDGWSPAVPCLRKCYFPYLENGYNQNYGRKFVQGKSIDVACHPGYALPKAQTTVTCMENGWSPTPRCI
Kd: 3.6 nM
